# Data: patent US20140011209, “Aptamers for Prion Diagnostics and Aptamer Binding Detection System” (Aptrix Biosystems LLC, published 2014)
# B1: SEQ ID NO. 1 (ssRNA)
# RNA: UAGCGACAAGGCGACAAGCAAUGACACAUUAACAGACCCUGGUUAGUGAACGAA
# B2: SEQ ID NO. 3 (ssRNA)
# RNA: UCUUCCAACGACCAUGCGGCGACAAGCGACUACAAGAGGGUACCCACGGACAGCA
# B3: Scrambled SEQ ID NO. 107 (ssRNA)
# RNA: GGAGGCCAACUAAUAACGCCAGAACUAUAGGAAUCCCAUGAAGCGAGCGAGAAUU
# B4: SEQ ID NO. 4 (ssRNA)
# RNA: UGGCGACGAGGCGGCAGGCAAUGACACAUUAGCAGACCCUGGUUAAUGAGCGAA
# B5: 74 alone (ssRNA)
# RNA: UCCUCAAAGCGACCGACCUUUGCCUAAACAGCUGAUGGUUUACAAAGGAAGCACG
# B6: Fus74_10_5 (ssRNA)
# RNA: GACCGGGGAGACAAGACUAGACGCUCAACUACGAACUCAUGACACAAGGAUGCAAUCUCAUCCCGACCUUUGCCUAAACAGCUGAUGGUUUACAAAGGAAGCACG
# B7: SEQ ID NO. 2 (ssRNA)
# RNA: AAGGCGAGGUGCGACCCGCACGUGGCAUCUGAUAGCACAUGAAAAGGCACGUCA
# B8: B-end (PrPSc binding region) (ssRNA)
# RNA: GGGAGACAAGACUAGACGCUCAACUACGAACUCAUGACACAAGGAUGCAAUCUCAUCCCG
# B9: SEQ ID NO. 6 (ssRNA)
# RNA: UGGCGGAUACUCUGCGAAGGGCGAACCCAACAUUUCGCACAGGACCGACUACUGCA
# Experiments:
# [1] = biological target: T1, RVV-X (Russell's viper venom factor X activator) (UniProt Q7LZ61;Q4PRD1;Q4PRD2 Q7LZ61:189-619,Q4PRD1:24-146,Q4PRD2:25-158); test: EMSA; room temperature, 1 h; conditions: tags: Haematologic Technologies, label: 32P end
# [2] = biological target: RVV-X (Russell's viper venom factor X activator) (UniProt Q7LZ61;Q4PRD1;Q4PRD2 Q7LZ61:189-619,Q4PRD1:24-146,Q4PRD2:25-158); test: EMSA; conditions: tags: Haematologic Technologies; label: 32P end
# [3] = biological target: T1, RVV-X (Russell's viper venom factor X …); test: EMSA; scrambled SEQ 1, negative control; conditions: tags: Haematologic Technologies; label: 32P end
# [4] = biological target: T1, RVV-X (Russell's viper venom factor X …); test: EMSA; conditions: tags: Haematologic Technologies; label: 32P end; three loops, two bulges, three stems
# [5] = biological target: alpha-Thrombin (Homo sapiens, UniProt P00734;P00734 P00734:328-363,P00734:364-622); test: EMSA; conditions: tags: Haematologic Technologies; label: 32P end; two loops and two short stems
# [6] = biological target: T1, RVV-X (Russell's viper venom factor X …); test: EMSA; prion binding component alone; conditions: tags: Haematologic Technologies; label: 32P end; two loops and two short stems
binder,measurement,setting,value
"AAAGCGACCGACCUUUGCCUAAACAGCUGAUGGUUUACAAAGGAA (ssRNA) [74, 5 from both]",Kd,[1],426 nM
B1,Kd,[2],30 nM
"GACCGACCUUUGCCUAAACAGCUGAUGGUUUACAAAGGAAGCACG (ssRNA) [74, 10 from 5']",Kd,[1]; stem-loop with bulge,250 nM
B2,Kd,[2],94.7 nM
B3,Kd,[3],131 nM
"UCCUCAAAGCGACCGACCUUUGCCUAAACAGCUGAUGGUUUACAAAGGAA (ssRNA) [74, 5 from 3']",Kd,[1],352 nM
"AAAGCGACCGACCUUUGCCUAAACAGCUGAUGGUUUACAAAGGAAGCACG (ssRNA) [74, 5 from 5']",Kd,[1],374 nM
"UCCUCAAAGCGACCGACCUUUGCCUAAACAGCUGAUGGUUUACAA (ssRNA) [74, 10 from 3']",Kd,[1],301 nM
B4,Kd,[2],158 nM
B5,Kd,[2],75 nM
B6,Kd,[4],63.9 nM
B7,Kd,[2],23 nM
B8,Kd,[5],4220 nM
same,Kd,[6],170 nM
B9,Kd,[2],19 nM
